How the values were obtained:
[1] = molecular target: GST mutant encoding FPheK at position-52 (Schistosoma japonicum (printed only as SjGST)); assay: cross-linking
[2] = molecular target: GST mutant encoding FSY at position-52 (Schistosoma japonicum (printed only as SjGST)); assay: cross-linking

Row | Substance | stoichiometry N [1] | stoichiometry N [2]
1 | GST mutant encoding FPheK at position-52 (enzyme) | 2 | 
2 | GST mutant encoding FSY at position-52 (enzyme) |  | 2
